Measurements published in EP4717706A1.
Changes are numbered by the printed parent chain. Names may count otherwise.

B1: AVR21 with I319N, Y377F (receptor)
chain: MGSAGESDQNTLPKHEAQLNVYVLLVPPKGEASTYDWQLITHPRDYSGEMEGEHSQILKLSNLTPGLFEYRAVVEGQNAHSEGYVNVTVEPEPRKNRPPIAIVSPQFQEISLPTTSTVIDGSQSTDDDKIVQYHWEELKGPLREEKISEDTAILKLSQLVPGNYTFRLTVVDTDGATDSTTADLTVNKAVDHHHHHH
B2: AVR21 with N329S, K368R, V412A (receptor)
chain: B1 chain with N10I, N20S, K59R, F68Y, V103A
B3: AVR24a (AVR21 with N329K, E401G, T426A) (receptor)
chain: B1 chain with N10I, N20K, F68Y, E92G, T117A
B4: AVR21 with L321Q, T343S (receptor)
chain: B1 chain with N10I, L12Q, T34S, F68Y
B5: AVR21 with D345G, E454D (receptor)
chain: B1 chain with N10I, D36G, F68Y, E145D
B6: AVR21 with L367P (receptor)
chain: B1 chain with N10I, L58P, F68Y
B7: AVR24b (AVR21 with K338R, T426A, A461P) (receptor)
chain: B1 chain with N10I, K29R, F68Y, T117A, A152P
B8: AVR21 with T397S (receptor)
chain: B1 chain with N10I, F68Y, T88S
B9: AVR21 with E(V)335A (receptor)
chain: B1 chain with N10I, V26A, F68Y
B10: AVR25c with F(Y)379N (receptor)
chain: B1 chain with N10I, N20K, F68Y, Y70N, E92G, T117A, A152P, Q158N
B11: AVR21 with K338R, A461P (receptor)
chain: B1 chain with N10I, K29R, F68Y, A152P
B12: AVR21 with E360D, H389R (receptor)
chain: B1 chain with N10I, E51D, F68Y, H80R
B13: AVR21 with L328P, V394A (receptor)
chain: B1 chain with N10I, L19P, F68Y, V85A
B14: AVR21 with L367P, V412A (receptor)
chain: B1 chain with N10I, L58P, F68Y, V103A
B15: AVR21 with V412A (receptor)
chain: B1 chain with N10I, F68Y, V103A
B16: AVR25c with G314D, E399K, E445K (receptor)
chain: B1 chain with G5D, N10I, N20K, F68Y, E90K, E92G, T117A, E136K, A152P, Q158N
B17: AVR25c_T474R (AVR25c with T474R) (receptor)
chain: B1 chain with N10I, N20K, F68Y, E92G, T117A, A152P, Q158N, T165R
B18: AVR25c with R406H, F416L (receptor)
chain: B1 chain with N10I, N20K, F68Y, E92G, R97H, F107L, T117A, A152P, Q158N
B19: AVR26 (AVR21 with N329K, K338R, E401G, T426A, A461P) (receptor)
chain: B1 chain with N10I, N20K, K29R, F68Y, E92G, T117A, A152P
B20: AVR21 with I366F, D435A (receptor)
chain: B1 chain with N10I, I57F, F68Y, D126A
B21: AVR21 with V332A (receptor)
chain: B1 chain with N10I, V23A, F68Y
B22: AVR21 with F(Y)379S (receptor)
chain: B1 chain with N10I, F68Y, Y70S
B23: AVR21 with I(V)382I (receptor)
chain: B1 chain with N10I, F68Y, V73I
B24: AVR21 with L369S (receptor)
chain: B1 chain with N10I, L60S, F68Y
B25: AVR21 with Y344F, T350A, Y377N (receptor)
chain: B1 chain with N10I, Y35F, T41A, F68N
B26: AVR21 with L376P (receptor)
chain: B1 chain with N10I, L67P, F68Y
B27: AVR25c with Q415R, S457R (receptor)
chain: B1 chain with N10I, N20K, F68Y, E92G, Q106R, T117A, S148R, A152P, Q158N
B28: AVR21 with E378G (receptor)
chain: B1 chain with N10I, F68Y, E69G
B29: AVR21 with Q347K, N472K (receptor)
chain: B1 chain with N10I, Q38K, F68Y, N163K
B30: AVR25c with Q347R, T486A, D500G (receptor)
chain: B1 chain with N10I, N20K, Q38R, F68Y, E92G, T117A, A152P, Q158N, T177A, D191G
B31: AVR25c with Q318R, E362D, E378G (receptor)
chain: B1 chain with Q9R, N10I, N20K, E53D, F68Y, E69G, E92G, T117A, A152P, Q158N
B32: AVR25c with G314D, V499I (receptor)
chain: B1 chain with G5D, N10I, N20K, F68Y, E92G, T117A, A152P, Q158N, V190I
B33: AVR25c with E378G, V398A (receptor)
chain: B1 chain with N10I, N20K, F68Y, E69G, V89A, E92G, T117A, A152P, Q158N
B34: AVR21 with L321Q (receptor)
chain: B1 chain with N10I, L12Q, F68Y
B35: AVR25b (AVR21 with K338R, E401G, T426A, A461P) (receptor)
chain: B1 chain with N10I, K29R, F68Y, E92G, T117A, A152P
B36: AVR21 with K(N)371S, E453D, S466T (receptor)
chain: B1 chain with N10I, N62S, F68Y, E144D, S157T
B37: AVR25c with E325V, D437V (receptor)
chain: B1 chain with N10I, E16V, N20K, F68Y, E92G, T117A, D128V, A152P, Q158N
B38: AVR21 with T426A (receptor)
chain: B1 chain with N10I, F68Y, T117A
B39: AVR21 with T397A (receptor)
chain: B1 chain with N10I, F68Y, T88A
B40: AVR21 with E340G (receptor)
chain: B1 chain with N10I, E31G, F68Y
B41: AVR21 with D500N (receptor)
chain: B1 chain with N10I, F68Y, D191N
B42: AVR21 with Q365R, V(A)381T, K497E (receptor)
chain: B1 chain with N10I, Q56R, F68Y, A72T, K188E
B43: AVR21 with T343A, K(N)371D (receptor)
chain: B1 chain with N10I, T34A, N62D, F68Y
B44: AVR21 with E384D, V396E (receptor)
chain: B1 chain with N10I, F68Y, E75D, V87E
B45: AVR21 with E(V)335A, V394I (receptor)
chain: B1 chain with N10I, V26A, F68Y, V85I
B46: AVR25c with T434S (receptor)
chain: B1 chain with N10I, N20K, F68Y, E92G, T117A, T125S, A152P, Q158N
B47: AVR25c with V(D)317G, T478I (receptor)
chain: B1 chain with D8G, N10I, N20K, F68Y, E92G, T117A, A152P, Q158N, T169I
B48: AVR25c with P322A, T350A, L421P (receptor)
chain: B1 chain with N10I, P13A, N20K, T41A, F68Y, E92G, L112P, T117A, A152P, Q158N
B49: AVR21 with N329K, E401G (receptor)
chain: B1 chain with N10I, N20K, F68Y, E92G
B50: AVR21 with L376P, P402S (receptor)
chain: B1 chain with N10I, L67P, F68Y, P93S
B51: AVR25c with H363P, K497E (receptor)
chain: B1 chain with N10I, N20K, H54P, F68Y, E92G, T117A, A152P, Q158N, K188E
B52: AVR25c with G392E, S433G, A485V, L493M, N496D (receptor)
chain: MGSAGESDQITLPKHEAQLKVYVLLVPPKGEASTYDWQLITHPRDYSGEMEGEHSQILKLSNLTPGLYEYRAVVEGQNAHSEEYVNVTVEPGPRKNRPPIAIVSPQFQEISLPTTSAVIDGSQGTDDDKIVQYHWEELKGPLREEKISEDTPILKLSNLVPGNYTFRLTVVDTDGVTDSTTADMTVDKAVDHHHHHH

Legend:
[1] = molecular target: VLP2 (virus-like particles, capsid protein particles of AAV serotype 2) (AAV serotype 2 (AAV2)) (UniProt P03135); assay: ELISA on immobilised VLP2 (culture supernatant, anti-His detection); A450 after 1:1 0.5 M NaOH, 30 min, 30°C divided by A450 untreated
[2] = molecular target: VLP2 (virus-like particles, capsid protein particles of AAV serotype 2) (AAV serotype 2 (AAV2)) (UniProt P03135); assay: ELISA on immobilised VLP2 (purified protein); start of alkali treatment, the reference of the ratio
[3] = molecular target: VLP2 (virus-like particles, capsid protein particles of AAV serotype 2) (AAV serotype 2 (AAV2)) (UniProt P03135); assay: ELISA on immobilised VLP2 (purified protein); A450 after 1:1 0.5 M NaOH, 30°C, 30 min divided by A450 at 0 time
[4] = molecular target: VLP2 (virus-like particles, capsid protein particles of AAV serotype 2) (AAV serotype 2 (AAV2)) (UniProt P03135); assay: ELISA on immobilised VLP2 (purified protein); A450 after 1:1 0.5 M NaOH, 30°C, 60 min divided by A450 at 0 time
[5] = molecular target: VLP2 (virus-like particles, capsid protein particles of AAV serotype 2) (AAV serotype 2 (AAV2)) (UniProt P03135); assay: ELISA on immobilised VLP2 (culture supernatant); A450 after 1:1 1 M NaOH, 15 min, 30°C divided by A450 untreated

UniProt P03135, sequence (P03135 whole entry): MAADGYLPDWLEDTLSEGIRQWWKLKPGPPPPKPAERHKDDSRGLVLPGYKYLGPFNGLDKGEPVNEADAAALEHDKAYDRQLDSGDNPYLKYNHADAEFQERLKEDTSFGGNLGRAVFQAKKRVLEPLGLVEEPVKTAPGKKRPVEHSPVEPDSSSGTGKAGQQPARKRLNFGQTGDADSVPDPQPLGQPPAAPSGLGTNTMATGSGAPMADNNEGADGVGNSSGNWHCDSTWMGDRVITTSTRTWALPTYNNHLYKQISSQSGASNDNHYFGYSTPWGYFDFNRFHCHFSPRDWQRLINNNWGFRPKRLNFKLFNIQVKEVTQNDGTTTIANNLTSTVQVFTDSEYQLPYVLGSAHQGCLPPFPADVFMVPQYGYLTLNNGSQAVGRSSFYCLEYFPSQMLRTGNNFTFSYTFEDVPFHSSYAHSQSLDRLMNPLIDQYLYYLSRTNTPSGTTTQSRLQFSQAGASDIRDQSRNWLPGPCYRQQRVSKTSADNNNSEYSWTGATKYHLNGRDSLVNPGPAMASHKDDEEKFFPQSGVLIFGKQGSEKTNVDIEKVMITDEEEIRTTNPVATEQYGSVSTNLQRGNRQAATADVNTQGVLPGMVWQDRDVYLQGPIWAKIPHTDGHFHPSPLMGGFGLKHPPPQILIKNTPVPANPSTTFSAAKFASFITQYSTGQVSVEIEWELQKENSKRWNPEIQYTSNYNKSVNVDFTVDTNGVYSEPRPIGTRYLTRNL

| Binder | Remaining activity [%] [1] | further results |
| --- | --- | --- |
| B1 | 45.1% | – |
| B2 | 37.1% | – |
| B3 | – | Remaining activity [%] [2]: 100%; Remaining activity [%] [3]: 37.6%; Remaining activity [%] [4]: 0.3% |
| B4 | 50.4% | – |
| B5 | 61.7% | – |
| B6 | 35.7% | – |
| B7 | – | Remaining activity [%] [2]: 100%; Remaining activity [%] [3]: 89.1%; Remaining activity [%] [4]: 17.6% |
| B8 | 38.4% | – |
| B9 | 35.8% | – |
| B10 | – | Remaining activity [%] [5]: 55.1% |
| B11 | 36.4% | – |
| B12 | 46.7% | – |
| B13 | 40.5% | – |
| B14 | 35.8% | – |
| B15 | 32.5% | – |
| B16 | – | Remaining activity [%] [5]: 62.5% |
| B17 | – | Remaining activity [%] [5]: 100% |
| B18 | – | Remaining activity [%] [5]: 41.9% |
| B19 | – | Remaining activity [%] [2]: 100%; Remaining activity [%] [3]: 100%; Remaining activity [%] [4]: 23.9% |
| B20 | 38.4% | – |
| B21 | 57.6% | – |
| B22 | 54.9% | – |
| B23 | 32.8% | – |
| B24 | 51.4% | – |
| B25 | 34.4% | – |
| B26 | 42.6% | – |

| Binder | Remaining activity [%] [1] | further results |
| --- | --- | --- |
| B27 | – | Remaining activity [%] [5]: 55.1% |
| B28 | 58% | – |
| B29 | 58.9% | – |
| B30 | – | Remaining activity [%] [5]: 72.8% |
| B31 | – | Remaining activity [%] [5]: 66.1% |
| B32 | – | Remaining activity [%] [5]: 79.1% |
| B33 | – | Remaining activity [%] [5]: 67.5% |
| B34 | 34.2% | – |
| B35 | – | Remaining activity [%] [2]: 100%; Remaining activity [%] [3]: 100%; Remaining activity [%] [4]: 1.5% |
| B36 | 57.3% | – |
| B37 | – | Remaining activity [%] [5]: 76.7% |
| B38 | 43.5% | – |
| B39 | 40.4% | – |
| B40 | 28.1% | – |
| B41 | 39.3% | – |
| B42 | 42% | – |
| B43 | 40.5% | – |
| B44 | 45.3% | – |
| B45 | 37.3% | – |
| B46 | – | Remaining activity [%] [5]: 77.3% |
| B47 | – | Remaining activity [%] [5]: 82% |
| B48 | – | Remaining activity [%] [5]: 49.6% |
| B49 | 43.1% | – |
| B50 | 35.1% | – |
| B51 | – | Remaining activity [%] [5]: 69.6% |
| B52 | – | Remaining activity [%] [5]: 61% |
